Assay results as given in patent US20260167720A1 (Amgen, published 2026).

Columns and labels:
Assay in all cases: cell-based or functional assay
[1] = target: T1, CDH3 (Cadherin-3, P-Cadherin) on HCT116 or GSU cells (UniProt P22223 108-829, limits assumed)
[2] = target: T2, MSLN (Mesothelin) on HCT116 or GSU cells (UniProt Q13421 37-598, limits assumed)
[3] = target: T1, CDH3 (Cadherin-3, P-Cadherin) on HCT116 …; remark: listed apart in the source
[4] = target: T2, MSLN (Mesothelin) on HCT116 or GSU cells; remark: listed apart in the source

| Binder | EC50 HCT116 KO MSLN [pM]; TDCC, MSLN knocked out, CDH3 left [1] [pM] | EC50 HCT116 WT [pM]; TDCC, cells double positive for CDH3 and MSLN [1] [pM] | EC50 HCT116 KO CDH3 [pM]; TDCC, CDH3 knocked out, MSLN left [2] [pM] | EC50 HCT116 WT [pM]; TDCC, cells double positive for CDH3 and MSLN [2] [pM] | EC50 GSU KO MSLN [pM]; TDCC, MSLN knocked out, CDH3 left [3] [pM] | EC50 GSU WT [pM]; TDCC, cells double positive for CDH3 and MSLN [3] [pM] | EC50 GSU KO CDH3 [pM]; TDCC, CDH3 knocked out, MSLN left [4] [pM] | EC50 GSU WT [pM]; TDCC, cells double positive for CDH3 and MSLN [4] [pM] |
| --- | --- | --- | --- | --- | --- | --- | --- | --- |
| MSLN-CDH3 T-cell engager molecule 5 (example to FIG. 2D) (bispecific antibody, human IgG1, kappa, N297G) chain 1: not shown chain 2: EVQLVESGGGLVQPGGSLKLSCAASGFTFNKYAMNWVRQAPGKGMEWVARIRSKYNNYATYYADAVKDRFTISRDDSKNTLYLQMNNLKTEDTAVYYCVRAGNFGSSYISYFAYWGQGTLVTVSSGGGGQGGGGQGGGGQQTVVTQEPSLTVSPGGTVTITCGSSTGAVTSGNYPNWIQKKPGQAPRGLIGGTKFLAPGTPARFSGSLEGGKAALTLSGVQPEDEAEYYCVLYYSNRWVFGSGTKLTVLGGGGGDKTHTCPPCPAPELLGGPSVFLFPPKPKDTLMISRTPEVTCVVVDVSHEDPEVKFNWYVDGVEVHNAKTKPCEEQYGSTYRCVSVLTVLHQDWLNGKEYKCKVSNKALPAPIEKTISKAKGQPREPQVYTLPPSRKEMTKNQVSLTCLVKGFYPSDIAVEWESNGQPENNYKTTPPVLKSDGSFFLYSKLTVDKSRWQQGNVFSCSVMHEALHNHYTQKSLSLSPGKGGGGQGGGGQGGGGQQVQLQESGPGLVKPSETLSLTCTVSGGSISSSSYFWGWIRQPPGKCLEWIGNIYYSGSSNYNPSLKSRVTISVDTSKNQFSLKLSSVTAADTAVYYCARLPRGDRDAFDIWGQGTMVTVSSGGGGQGGGGQGGGGQEIVMTQSPSSLSASVGDRVTITCRASQGISNYLAWYQQKPGKVPKLLIYAASTLQSGVPSRFSGSGSGTDFTLTISSLQPEDFATYYCQQSYSTPFTFGCGTKVEIK chain 3: EIQMTQSPSSLSASVGDRVTITCRASQDISNYLNWYQQKPGKVPKLLIYYTSRLHSGVPSRFSGSGSGTDFTLTISSLQPEDVATYYCVQYAQFPLTFGCGTKVEIKRTVAAPSVFIFPPSDEQLKSGTASVVCLLNNFYPREAKVQWKVDNALQSGNSQESVTEQDSKDSTYSLESTLTLSKADYEKHKVYACEVTHQGLSSPVTKSFNRGEC | 2.25 | 0.039 | 8.07 | 0.039 | 175 | 0.128 | 10.5 | 0.128 |
| MSLN-CDH3 T-cell engager molecule 7 (example to FIG. 2K) (bispecific antibody, human IgG1, kappa, lambda, N297G) chain 1: not shown chain 2: EVQLVESGGGLVQPGGSLKLSCAASGFTFNKYAMNWVRQAPGKGMEWVARIRSKYNNYATYYADAVKDRFTISRDDSKNTLYLQMNNLKTEDTAVYYCVRAGNFGSSYISYFAYWGQGTLVTVSSASTKGPSVFPLAPSSKSTSGGTAALGCLVKDYFPEPVTVSWNSGALTSGVHTFPAVLQSSGLYSLESVVTVPSSSLGTQTYICNVNHKPSNTKVDKKVEPKSCDKTHTCPPCPAPELLGGPSVFLFPPKPKDTLMISRTPEVTCVVVDVSHEDPEVKFNWYVDGVEVHNAKTKPCEEQYGSTYRCVSVLTVLHQDWLNGKEYKCKVSNKALPAPIEKTISKAKGQPREPQVYTLPPSRKEMTKNQVSLTCLVKGFYPSDIAVEWESNGQPENNYKTTPPVLKSDGSFFLYSKLTVDKSRWQQGNVFSCSVMHEALHNHYTQKSLSLSPGKGGGGQGGGGQGGGGQQVQLQESGPGLVKPSETLSLTCTVSGGSISSSSYFWGWIRQPPGKCLEWIGNIYYSGSSNYNPSLKSRVTISVDTSKNQFSLKLSSVTAADTAVYYCARLPRGDRDAFDIWGQGTMVTVSSGGGGQGGGGQGGGGQEIVMTQSPSSLSASVGDRVTITCRASQGISNYLAWYQQKPGKVPKLLIYAASTLQSGVPSRFSGSGSGTDFTLTISSLQPEDFATYYCQQSYSTPFTFGCGTKVEIK chain 3: EIQMTQSPSSLSASVGDRVTITCRASQDISNYLNWYQQKPGKVPKLLIYYTSRLHSGVPSRFSGSGSGTDFTLTISSLQPEDVATYYCVQYAQFPLTFGCGTKVEIKRTVAAPSVFIFPPSDEQLKSGTASVVCLLNNFYPREAKVQWKVDNALQSGNSQESVTEQDSKDSTYSLESTLTLSKADYEKHKVYACEVTHQGLSSPVTKSFNRGEC chain 4: QTVVTQEPSLTVSPGGTVTITCGSSTGAVTSGNYPNWIQKKPGQAPRGLIGGTKFLAPGTPARFSGSLEGGKAALTLSGVQPEDEAEYYCVLYYSNRWVFGSGTKLTVLGQPKAAPSVTLFPPSSEELQANKATLVCLISDFYPGAVTVAWKADSSPVKAGVETTTPSKQSNNKYAAKSYLSLTPEQWKSHRSYSCQVTHEGSTVEKTVAPTECS | 1.5 | 0.04 | 25.5 | 0.04 | 95 | 0.261 | 54.6 | 0.261 |
| MSLN-CDH3 T-cell engager molecule 6 (example to FIG. 2L) (bispecific antibody, human IgG1, kappa, lambda, N297G) chain 1: not shown chain 2: EVQLVESGGGLVQPGGSLKLSCAASGFTFNKYAMNWVRQAPGKGMEWVARIRSKYNNYATYYADAVKDRFTISRDDSKNTLYLQMNNLKTEDTAVYYCVRAGNFGSSYISYFAYWGQGTLVTVSSASTKGPSVFPLAPSSKSTSGGTAALGCLVKDYFPEPVTVSWNSGALTSGVHTFPAVLQSSGLYSLESVVTVPSSSLGTQTYICNVNHKPSNTKVDKKVEPKSCDKTHTCPPCPAPELLGGPSVFLFPPKPKDTLMISRTPEVTCVVVDVSHEDPEVKFNWYVDGVEVHNAKTKPCEEQYGSTYRCVSVLTVLHQDWLNGKEYKCKVSNKALPAPIEKTISKAKGQPREPQVYTLPPSRKEMTKNQVSLTCLVKGFYPSDIAVEWESNGQPENNYKTTPPVLKSDGSFFLYSKLTVDKSRWQQGNVFSCSVMHEALHNHYTQKSLSLSPGKGGGGQVQLQESGPGLVKPSETLSLTCTVSGGSISSSSYFWGWIRQPPGKCLEWIGNIYYSGSSNYNPSLKSRVTISVDTSKNQFSLKLSSVTAADTAVYYCARLPRGDRDAFDIWGQGTMVTVSSGGGGQGGGGQGGGGQEIVMTQSPSSLSASVGDRVTITCRASQGISNYLAWYQQKPGKVPKLLIYAASTLQSGVPSRFSGSGSGTDFTLTISSLQPEDFATYYCQQSYSTPFTFGCGTKVEIKSGGGGQEVQLVESGGGLVQPGGSLKLSCAASGFTFNKYAMNWVRQAPGKGMEWVARIRSKYNNYATYYADAVKDRFTISRDDSKNTLYLQMNNLKTEDTAVYYCVRAGNFGSSYISYFAYWGQGTLVTVSSGGGGQGGGGQGGGGQQTVVTQEPSLTVSPGGTVTITCGSSTGAVTSGNYPNWIQKKPGQAPRGLIGGTKFLAPGTPARFSGSLEGGKAALTLSGVQPEDEAEYYCVLYYSNRWVFGSGTKLTVL chain 3: EIQMTQSPSSLSASVGDRVTITCRASQDISNYLNWYQQKPGKVPKLLIYYTSRLHSGVPSRFSGSGSGTDFTLTISSLQPEDVATYYCVQYAQFPLTFGCGTKVEIKRTVAAPSVFIFPPSDEQLKSGTASVVCLLNNFYPREAKVQWKVDNALQSGNSQESVTEQDSKDSTYSLESTLTLSKADYEKHKVYACEVTHQGLSSPVTKSFNRGEC chain 4: QTVVTQEPSLTVSPGGTVTITCGSSTGAVTSGNYPNWIQKKPGQAPRGLIGGTKFLAPGTPARFSGSLEGGKAALTLSGVQPEDEAEYYCVLYYSNRWVFGSGTKLTVLGQPKAAPSVTLFPPSSEELQANKATLVCLISDFYPGAVTVAWKADSSPVKAGVETTTPSKQSNNKYAAKSYLSLTPEQWKSHRSYSCQVTHEGSTVEKTVAPTECS | 0.27 | 0.002 | 0.58 | 0.002 | 11.6 | 0.024 | 0.89 | 0.024 |
